From publication PMC7093153 (eLife, 2020)

B1: Swi5-Sfr1 complex (wild type, full-length Sfr1) (complex, S. pombe)
chain 1: MEKSQLESRVHLLEQQKEQLESSLQDALAKLKNRDAKQTVQKHIDLLHTYNEIRDIALGMIGKVAEHEKCTSVELFDRFGVNGSE
chain 2: MSQTINSELNENATSQCKEDLKVSLSESDLRDSQGQLGIENPPKCNNSGNHSDNLGFIEQSETVHPENEKALTPDLRDTKIHTSLPITTPFSKKRAREAKNILLKPFKSPLRQTASPQVADTNLKPSLAVTNLNSDETNTSSEPVTSPLRTTPNSIKRQKRLFKSPISNCLNPKSDPEITQLLSRRLKLEKEVRNLQEQLITAETARKVEAKNEDKDLQTLIQKWKNAAQQAAEVLFKPMAERIRLAGGVTQSFRIEEGENKGQIQEVRTEFTMSMFLNQFGVPVHLMSFDEENGDWKS
B2: Rad51 (S. pombe), purified (natural protein, UniProt P36601 1-365, looked up)
chain: MADTEVEMQVSAADTNNNENGQAQSNYEYDVNVQDEEDEAAAGPMPLQMLEGNGITASDIKKIHEAGYYTVESIAYTPKRQLLLIKGISEAKADKLLGEASKLVPMGFTTATEYHIRRSELITITTGSKQLDTLLQGGVETGSITELFGEFRTGKSQICHTLAVTCQLPIDMGGGEGKCLYIDTEGTFRPVRLLAVADRYGLNGEEVLDNVAYARAYNADHQLELLQQAANMMSESRFSLLVVDSCTALYRTDFSGRGELSARQMHLARFMRTLQRLADEFGIAVVITNQVVAQVDGISFNPDPKKPIGGNILAHSSTTRLSLRKGRGEQRICKIYDSPCLPESEAIFAINSDGVGDPKEIIAPV

Experiments:
[1] = molecular target: B2; experiment: cell-based or functional assay
SEC = molecular target: the molecule itself; experiment: SEC
[2] = molecular target: B1; experiment: pull-down

Row | Binder | Rad51-dependent ATP turnover, Swi5-Sfr1:Rad51 ratio of 1:20 [1] [fold] | binding result (SEC) | binding result [2]
1 | B1 | 1.85 |  | 
2 | B2 |  | binds | binds
